Patent publication US20250090663A1 (published 2025)

How the values were obtained:
Experiment in all cases: SPR (Carterra); apparent Kd
Positive Control (1C8) = target: Positive Control (1C8)
Positive Control (27B3) = target: Positive Control (27B3)
Positive Control (8G1) = target: Positive Control (8G1)
[1] = target: T1, CD70 (antigen of the Carterra KD analysis) (UniProt P32970 39-193)
T1 chain: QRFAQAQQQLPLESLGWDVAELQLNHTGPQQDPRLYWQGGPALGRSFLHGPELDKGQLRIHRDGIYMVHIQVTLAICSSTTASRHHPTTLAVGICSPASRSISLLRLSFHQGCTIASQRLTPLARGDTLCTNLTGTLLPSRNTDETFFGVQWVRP

B1: CD70 (ligand)
chain: QRFAQAQQQLPLESLGWDVAELQLNHTGPQQDPRLYWQGGPALGRSFLHGPELDKGQLRIHRDGIYMVHIQVTLAICSSTTASRHHPTTLAVGICSPASRSISLLRLSFHQGCTIASQRLTPLARGDTLCTNLTGTLLPSRNTDETFFGVQWVRP
- Kd (Positive Control (1C8)): 0.652 nM
- Kd (Positive Control (27B3)): 0.634 nM
- Kd (Positive Control (8G1)): 2.19 nM

B2: C1-Fc (anti-CD70 VHH-Fc fusion polypeptide) (Fc fusion)
chain: QVQLQESGGGLVQTGGSLRLACTASGFTFDDYAIAWFRQAPGKEREFVAAISWSGGTTHYADSVKGRFTISRDNAKNTLYLQMSSLKPEDTAVYFCAKSLRSSPSSRWFGSRGQGTQVTVSS
- Kd [1]: 23.4 nM

B3: H1-Fc (anti-CD70 VHH-Fc fusion polypeptide) (Fc fusion)
chain: QVQLQESGGGLVQAGGSLRLSCAAPRSIFSINAMGWYRQAPGKQRELVAAITSGGSPTYADSVKGRFTISRDNAKNTVYLQMNSLKAEDTAVYYCATGPYGLDNALDAWGQGTQVTVSS
- Kd [1]: 2.73 nM
